Reference: publication PMC3779476 (Nature, 2013)

Molecular target: the molecule itself
Assay: native gel or EMSA

B1: LamB (natural protein)
chain: VDFHGYARSGIGWTGSGGEQQCFQTTGAQSKYRLGNECETYAELKLGQEVWKEGDKSFYFDTNVAYSVAQQNDWEATDPAFREANVQGKNLIEWLPGSTIWAGKRFYQRHDVHMIDFYYWDISGPGAGLENIDVGFGKLSLAATRSSEAGGSSSFASNNIYDYTNETANDVFDVRLAQMEINPGGTLELGVDYGRANLRDNYRLVDGASKDGWLFTAEHTQSVLKGFNKFVVQYATDSMTSQGKGLSQGSGVAFDNEKFAYNINNNGHMLRILDHGAISMGDNWDMMYVGMYQDINWDNDNGTKWWTVGIRPMYKWTPIMSTVMEIGYDNVESQRTGDKNNQYKITLAQQWQAGDSIWSRPAIRVFATYAKWDEKWGYDYTGNADNNANFGKAVPADFNGGSFGRGDSDEWTFGAQMEIWW
stoichiometry N: 3
